In the RNAGym collection of RNA variant scans (doi:10.1073/pnas.2313332121):
This sample holds only a part of the variants without activity.

B1: TPR 5TU (parent)
chain: GGAUCUUCUCGAUCUAACAAAAAAGACAAAUCUGCCACAAAGCUUGAGAGCAUCUUCGGAUGCAGAGGCGGCAGCCUUCGGUGGCGCGAUAGCGCCAACGUUCUCAACUAUGACACGCAAAACGCGUGCUCCGUUGAAUGGAGUUUAUCAUG

Variants of: B1
Assay: polymerase ribozyme fitness, log enrichment relative to wild type (log ratio); higher = more active; in vitro selection for triplet polymerase activity
Procedure, shortened: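 Streptavidin-bead capture of gel-excised extended constructs, followed by RT-PCR, closed a single triplicate in vitro selection round. That round began by annealing PCR-built, transcribed mutant libraries of each subunit of a heterodimeric triplet polymerase ribozyme with a biotinylated primer, the partner subunit and triplets, then incubating them frozen at −7 °C. After Illumina sequencing of inputs and outputs, genotypes needed ≥10 input reads and ≥1 read per output. Fitness is the base-2 logarithm of genotype enrichment over wild-type enrichment, using inverse-variance-weighted replicate averages.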

| Variant | polymerase ribozyme fitness (log ratio) |
| --- | --- |
| U53A U61A U109G | -2.25 |
| A89G C125A | -1.77 |
| C5G G65A A66G A137C G141C | ≤ -4.2 |
| C38A G48C G71U | ≤ -4.2 |
| A24U A52U C118G A142U | -3.54 |
| C79A C108U | -4.06 |
| A20C G83C C118G U130G | ≤ -4.2 |
| C57A A64C C85A C95U U130A A147U | ≤ -4.2 |
| A49C G59U U77C G81C U109G G141C | ≤ -4.2 |
| G50A A115G | -2.49 |
| G80C C95U C118G | ≤ -4.2 |
| G48A G59C | -0.874 |
| C99G U102G U135A | ≤ -4.2 |
| U56G G68U | ≤ -4.2 |
| U53A A122G U134A | -3.02 |
| C51A A52U C63U C99G A106C A119G G126U | ≤ -4.2 |
| A23U C85U A91G G126C G140U | ≤ -4.2 |
| A49G | -0.331 |
| C8A U55A G88A G133C G136A U139A G143C | ≤ -4.2 |
| A73G U104C | -0.284 |
| C5A A19U G86C | -3.47 |
| U77C C93U G100A A119U A150C | ≤ -4.2 |
| G88U G117U A142C | ≤ -4.2 |
| A12G C14U G92U U111C A138U | ≤ -4.2 |

| Variant | polymerase ribozyme fitness (log ratio) |
| --- | --- |
| U31A C35G A66C G68U | -4.17 |
| G62U G124C | -1.42 |
| A30U A39G A98G C99U C105G | ≤ -4.2 |
| G58C U134G | -3.93 |
| A3C U31G C51U A60C A122C G140A | ≤ -4.2 |
| U56G G84U C85A C99U | ≤ -4.2 |
| A37C A49G C87U A115C | -3.32 |
| C57A C85U A106U C125G G136U U146G | -3.77 |
| C57U A97G G128C G141C | -3.99 |
| A24U C93U G136A | -1.47 |
| G11C U61A G67A G94C U145G A147U | ≤ -4.2 |
| C5A | 0.273 |
| C93A A142C | -1.78 |
| C8A C93A | ≤ -4.2 |
| A17U A49U C85A A97U | ≤ -4.2 |
| U31A C87G C114A | -4.03 |
| C51A G84A U144A | -2.52 |
| G62A A121G | -0.384 |
| C14G G88C C125G | -4.08 |
| A16G A40C | -0.456 |
| U33G A52C G92C U139C | ≤ -4.2 |
| C14G A40G A73G C85U U139A | ≤ -4.2 |
| C75A C87U | -3.81 |
| U61A G86A A97U C99G A113U G152U | ≤ -4.2 |

| Variant | polymerase ribozyme fitness (log ratio) |
| --- | --- |
| G62C A113U G117A A137C | ≤ -4.2 |
| A49G G50U C51U C96U A98C G126A U134G U146A | -3.95 |
| A3U C5A U15C A19G C57G C118G G136A G141C A142C | ≤ -4.2 |
| C87A C105U A107U | ≤ -4.2 |
| C10G G94A | -3.44 |
| G68A G92C | -4.16 |
| C93G G141C | -3.36 |
| G50U A97U A147U | 0.621 |
| C14U C54U C57U C72U G83A | -4.05 |
| A47U A121U A147C C149U | -3.04 |
| A23U C38U G59C C95A U151G | ≤ -4.2 |
| C63G A64C C72U C95U C105G A120U G141U | ≤ -4.2 |
| G92U U146A | -0.393 |
| G59C C93U U102A A137G | -3.95 |
| C27G C87G G133C | ≤ -4.2 |
| U61C G80C C85U C99U U146A | ≤ -4.2 |
| A3U U4A A16U U31A C85U G88A C125U U146G | ≤ -4.2 |
| G94A G141A A150U | ≤ -4.2 |
| G59C C85U | -0.507 |
| U6G A41C A49G C95G | -2.03 |
| A47U A60C C103G A107G | ≤ -4.2 |
| G67C G83A C123G | ≤ -4.2 |
| U56G G81U A91G | -3.38 |
| U55C C85G | -1.66 |

| Variant | polymerase ribozyme fitness (log ratio) |
| --- | --- |
| G68C C93G C131A | ≤ -4.2 |
| G68A C85U | -3.48 |
| U31C C96G A137U | ≤ -4.2 |
| A49C G143A | -4.14 |
| C54U G84A A110U | ≤ -4.2 |
| C75U G92C C132A | ≤ -4.2 |
| C14A A20C C96U | -1.32 |
| A30G C95A U104A C118U C131A A138U G141A | ≤ -4.2 |
| A26C U82A A137G | -2.93 |
| A28C U31G C125G | ≤ -4.2 |
| U53A C57U A97G | -1.24 |
| C57U G84A A98U C129U A147U | -1.13 |
| A12C A39U G59A A91U C93U A150C | ≤ -4.2 |
| G83C G136A | -0.101 |
| A40U C79U A121G | -2.75 |
| C18G C79G | -3.9 |
| U13C C51A G83C A89G C125U | ≤ -4.2 |
| U82C A115U G136C | -3.84 |
| A40G U45A U56A A60G G71C C118G | ≤ -4.2 |
| C36A U82A U90G A98C | ≤ -4.2 |
| C18G G59A C75U C93A A107C C118A | ≤ -4.2 |
| G48U C96G | -1.13 |
| C36U G94A C125A | -1.63 |
| A26G C36A | ≤ -4.2 |

| Variant | polymerase ribozyme fitness (log ratio) |
| --- | --- |
| C76A G84A U134G | -2.67 |
| C35U G88A | -4.1 |
| U56A A60G C125G | -0.563 |
| G11U U13A A17U A26U A41C U45A C87A C108U A142C A147U | ≤ -4.2 |
| C96A U104A G124C | -1.19 |
| G50A G92A A106G | ≤ -4.2 |
| A24G C69A A91U A138U G143U | ≤ -4.2 |
| U13A A22U U53A G62C A64U U90A A91C C103A A106G C108U G126C | ≤ -4.2 |
| U7G G11C A29C U82G C95U U109G | ≤ -4.2 |
| A47U U56A C95U A119U U135A | -2.15 |
| G50C C63U U82C A115U U146A | -1.83 |
| A3C U56G C93U C114G U134A U148C | ≤ -4.2 |
| U55A G58U G84A C103U A120C | -0.0961 |
| A3G C10G A41G C76A U145A | ≤ -4.2 |
| U61G C93U | -1.89 |
| A17G G62U G68U C96A C105G U134G | ≤ -4.2 |
| C32G C99U | ≤ -4.2 |
| C5U C87U G94C | -2.15 |
| A22C A40U C57U G58A G65A C75A G133A A138U A142C | ≤ -4.2 |
| C36U C93G C103G C129A G141C | ≤ -4.2 |
| A22C C27A U56A C85U C93A C99G A138U | ≤ -4.2 |
| A23C U44A U45A G74A A91G | ≤ -4.2 |
| C5A U9A A41G C76G A91U G126A G136A | ≤ -4.2 |
| C27A U45G G46A A60U C95G G124U | ≤ -4.2 |

| Variant | polymerase ribozyme fitness (log ratio) |
| --- | --- |
| G80C C96U | -3.79 |
| U56G C57A G81A A107C G117A | ≤ -4.2 |
| A49G C63U G81C U104G | -2.29 |
| A20U A41U G48A A49G C96G A106G A107G U135G | ≤ -4.2 |
| U61A C63U G133U | ≤ -4.2 |
| C18U G34U G70A C85U C87U A91C G117A | ≤ -4.2 |
| C54G G65U A73U C87A A106U G140A G143A | ≤ -4.2 |
| C54U C149U | -0.259 |
| A40U C63G | 0.0879 |
| C69A G71U | -0.808 |
| A28G C93U C105G | ≤ -4.2 |
| A37G U61C G94U U145C | ≤ -4.2 |
| A20U U61A C72A C75U C93G C99A C131G | ≤ -4.2 |
| A21U G128A | -3.26 |
| G42C G86C | ≤ -4.2 |
| A64U C69U | ≤ -4.2 |
| C36U C99U U145A | -1.47 |
| A26C G65A C79A A89U A97C G117A | ≤ -4.2 |
| A40C C51U C57A G94U C114G A150G | ≤ -4.2 |
| C14A C54U | -2.07 |
| G50U C75G G86U C87A A89U | ≤ -4.2 |
| A17G C96A A119U | -0.596 |
| A3G C5G G84A G88A | -3.09 |
| C85A G117A | -1.76 |

| Variant | polymerase ribozyme fitness (log ratio) |
| --- | --- |
| A49C A52C U56C C87G C95U A98G A107C A119G | -4.17 |
| A29U A49G C54G G59U A91U C96A G117U A142U | ≤ -4.2 |
| A26U C35U G42C C108A A115C G133U U135A A142G U146C A147G | ≤ -4.2 |
| A39U C54U C57G U61A C95G C125G | ≤ -4.2 |
| C5U U13A C14A U53A U55A C76A A120U G124C | ≤ -4.2 |
| C14G A89U C99A A107C | ≤ -4.2 |
| A16C G84A C105G C114U C125A U144A U151G | ≤ -4.2 |
| U56A A91G | -3.41 |
| A52U U78C U102C | -2.88 |
| A52G C69A | -3.71 |
| G50U G83C | -0.813 |
| A3G U4G C32U U56A G74A G81A A120G | -0.184 |
| U44G G67U A91U A115U A120C | ≤ -4.2 |
| C5G A22U G58U A60U A64U G83C | ≤ -4.2 |
| C85G G124A G133A | ≤ -4.2 |
| U13G A26U C32G U33A C54G A66U C118A U144A | ≤ -4.2 |
| A21C A41C A115G | -1.51 |
| A26U U78A C96A C116U U146C | ≤ -4.2 |
| G11A C14G A30U U44A U45A G92U | ≤ -4.2 |
| C8U A20U G46C G59U A60C C63U G83U C87U A97U U145A | ≤ -4.2 |
| U31A U44A A52C G71U G83C G86A A97C U104A | ≤ -4.2 |
| A3U U82C U101A | -0.128 |
| C10U A16C A39C G50U U56A G67C G94C C108U | ≤ -4.2 |
